Tests used:
[1] = target: mouse CSPG5-GST (mouse); assay: SPR Biacore T-100, antibody captured, mouse CSPG5-GST analyte
Procedure: The affinity of the anti-CSPG5 antibodies, the CSPG5202 IgG4PE(R409K), and the AVM IgG4PE(R409K) CSPG5202 dscFv produced in Example 2 for human CSPG5 and mouse CSPG5 was measured using Biacore T-100 (GE Healthcare).
Each of the antibodies was immobilized on a […] sensor chip using a Human antibody Capture kit, and the binding ability was evaluated using human CSPG5-GST and mouse CSPG5-GST produced in Example 4 as analytes. The obtained sensorgram was analyzed with BIA evaluation software, and the dissociation constant (KD value) was calculated.

[2] = target: T1, human CSPG5 (human, UniProt O95196 31-566); assay: FACS on CSPG5/Expi293F cells
T1 construct: Full-length gene expressed on cell membrane (Expi293F, L929); also called human CSPG5/Expi293F cells; human CSPG5/L929#09
T1 sequence: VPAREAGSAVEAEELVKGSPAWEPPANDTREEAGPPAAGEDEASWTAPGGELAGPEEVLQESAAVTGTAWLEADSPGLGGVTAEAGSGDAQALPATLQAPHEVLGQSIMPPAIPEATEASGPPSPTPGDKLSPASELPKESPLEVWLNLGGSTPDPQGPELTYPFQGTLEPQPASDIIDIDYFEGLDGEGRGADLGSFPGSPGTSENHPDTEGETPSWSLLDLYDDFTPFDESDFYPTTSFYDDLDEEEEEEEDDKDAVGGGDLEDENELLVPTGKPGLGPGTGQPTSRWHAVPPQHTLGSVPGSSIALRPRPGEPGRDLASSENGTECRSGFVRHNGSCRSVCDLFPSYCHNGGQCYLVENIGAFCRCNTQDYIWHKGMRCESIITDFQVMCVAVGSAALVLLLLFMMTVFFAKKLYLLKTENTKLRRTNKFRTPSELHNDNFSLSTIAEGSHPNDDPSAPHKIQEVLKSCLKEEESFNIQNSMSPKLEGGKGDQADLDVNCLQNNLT
Procedure: (§1) Expi293F cells, human CSPG5/Expi293F cells, mouse CSPG5/Expi293F cells, and monkey CSPG5/Expi293F cells were separately suspended in Staining Buffer (SB) of PBS comprising 0.1% NaN₃ and 1% FBS and dispensed in a round-bottom 96-well plate (manufactured by Becton, Dickinson and Company). After centrifugation (2000 rpm, 4° C., 2 minutes), the supernatant was removed, and to the resulting pellet, 10 μg/mL of each antibody obtained in Example 2 was added to suspend the pellet, and the resulting suspension was left to stand for 30 minutes at ice temperature. After further centrifugation (2000 rpm, 4° C., 2 minutes), the supernatant was removed, and the resulting pellet was washed with SB, and thereafter, 1 μg/mL of an RPE fluorescently labeled goat anti-human antibody (manufactured by Southern Biotech, Inc.) was added thereto, and the resultant was incubated for 30 minutes at ice temperature. After washing with SB, the cells were suspended in SB, and the fluorescence intensity of each cell was measured using a flow cytometer FACS CANTO II (manufactured by Becton, Dickinson and Company). Note that as a negative control, 10 μg/mL of the anti-AVM antibody was used.

[3] = target: T2, monkey CSPG5 (monkey (rhesus monkey), UniProt O95196 31-566 (human entry)); assay: FACS on CSPG5/Expi293F cells
T2 construct: Full-length gene expressed on Expi293F cells; also called monkey CSPG5/Expi293F cells; rhesus monkey CSPG5
T2 chain: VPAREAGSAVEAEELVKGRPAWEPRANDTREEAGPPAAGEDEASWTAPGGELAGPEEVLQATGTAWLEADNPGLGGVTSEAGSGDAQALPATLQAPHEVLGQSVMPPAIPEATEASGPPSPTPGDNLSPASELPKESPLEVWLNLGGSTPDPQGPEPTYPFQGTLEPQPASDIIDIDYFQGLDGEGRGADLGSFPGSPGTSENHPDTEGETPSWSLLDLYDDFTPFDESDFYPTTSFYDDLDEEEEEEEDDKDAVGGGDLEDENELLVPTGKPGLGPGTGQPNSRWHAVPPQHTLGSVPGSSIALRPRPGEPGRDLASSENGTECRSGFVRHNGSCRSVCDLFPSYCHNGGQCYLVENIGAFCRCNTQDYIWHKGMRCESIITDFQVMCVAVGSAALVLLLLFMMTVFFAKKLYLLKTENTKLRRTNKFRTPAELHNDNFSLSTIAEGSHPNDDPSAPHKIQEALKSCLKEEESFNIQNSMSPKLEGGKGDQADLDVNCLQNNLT
Procedure: as §1

[4] = target: T3, mouse CSPG5 (mouse, UniProt Q71M36 31-566); assay: FACS on CSPG5/Expi293F cells
T3 construct: Full-length gene expressed on Expi293F cells; also called mouse CSPG5/Expi293F cells
T3 sequence: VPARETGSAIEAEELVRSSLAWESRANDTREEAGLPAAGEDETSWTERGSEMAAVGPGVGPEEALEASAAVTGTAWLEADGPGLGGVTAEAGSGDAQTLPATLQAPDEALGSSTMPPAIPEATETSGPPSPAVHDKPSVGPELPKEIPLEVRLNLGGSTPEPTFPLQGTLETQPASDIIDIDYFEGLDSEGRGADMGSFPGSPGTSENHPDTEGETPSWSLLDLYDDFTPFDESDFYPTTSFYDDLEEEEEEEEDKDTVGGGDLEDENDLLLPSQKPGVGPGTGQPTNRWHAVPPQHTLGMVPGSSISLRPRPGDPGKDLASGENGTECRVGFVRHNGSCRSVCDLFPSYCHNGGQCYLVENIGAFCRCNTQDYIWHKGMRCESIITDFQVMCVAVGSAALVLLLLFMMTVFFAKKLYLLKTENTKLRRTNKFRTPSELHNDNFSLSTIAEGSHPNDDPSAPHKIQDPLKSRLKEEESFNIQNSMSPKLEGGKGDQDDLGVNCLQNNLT
Procedure: as §1

[5] = target: T3, mouse CSPG5; assay: FACS, 10 µg/mL antibody, mouse CSPG5/Expi293F vs Expi293F
Procedure: as §1
(§2) The detection results were analyzed, and a mean fluorescence intensity (MFI) was calculated using a geometric mean. Further, with respect to the MFI when the concentration of each antibody was 10 μg/mL, the ratio of the MFI (mean fluorescence intensity ratio) between the human CSPG5/Expi293F cells and the Expi293F cells (parent cell line) was calculated. Also for the monkey CSPG5/Expi293F cells and the mouse CSPG5/Expi293F cells, the mean fluorescence intensity ratio relative to the Expi293F cells (parent cell line) was calculated by the same procedure, and the results are shown in Table 3.

[6] = target: T2, monkey CSPG5; assay: FACS, 10 µg/mL antibody, monkey CSPG5/Expi293F vs Expi293F
Procedure: as §1, §2

[7] = target: T1, human CSPG5; assay: FACS, 10 µg/mL antibody, human CSPG5/Expi293F vs Expi293F
Procedure: as §1, §2

B1: AVM IgG4PE(R409K) CSPG5202 dscFv (bispecific antibody)
heavy: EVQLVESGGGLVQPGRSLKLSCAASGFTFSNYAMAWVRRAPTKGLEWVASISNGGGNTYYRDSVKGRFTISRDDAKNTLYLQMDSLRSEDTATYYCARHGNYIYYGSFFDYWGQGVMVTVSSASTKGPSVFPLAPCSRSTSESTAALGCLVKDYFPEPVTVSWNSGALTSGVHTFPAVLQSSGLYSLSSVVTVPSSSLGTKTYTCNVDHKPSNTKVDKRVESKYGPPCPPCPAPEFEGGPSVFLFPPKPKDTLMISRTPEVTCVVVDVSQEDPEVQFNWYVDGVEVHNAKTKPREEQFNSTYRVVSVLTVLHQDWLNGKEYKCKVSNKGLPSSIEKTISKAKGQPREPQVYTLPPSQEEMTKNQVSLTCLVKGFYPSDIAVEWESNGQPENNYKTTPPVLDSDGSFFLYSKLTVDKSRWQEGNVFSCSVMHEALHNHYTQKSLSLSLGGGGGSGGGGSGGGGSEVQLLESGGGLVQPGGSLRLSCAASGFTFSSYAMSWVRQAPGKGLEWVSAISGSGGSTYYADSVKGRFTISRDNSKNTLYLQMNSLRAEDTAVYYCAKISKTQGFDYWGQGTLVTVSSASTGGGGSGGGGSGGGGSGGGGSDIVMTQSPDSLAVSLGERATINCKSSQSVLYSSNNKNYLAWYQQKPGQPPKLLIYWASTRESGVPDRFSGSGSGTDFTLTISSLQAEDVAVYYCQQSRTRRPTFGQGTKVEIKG
light: QFVLSQPNSVSTNLGSTVKLSCKRSTGNIGSNYVSWYQQHEGRSPTTMIYRDDKRPDGVPDRFSGSIDRSSDSALLTINNVQTEDEADYFCQSYSSGINIFGGGTKLTVLGQPKAAPSVTLFPPSSEELQANKATLVCLISDFYPGAVTVAWKADSSPVKAGVETTTPSKQSNNKYAASSYLSLTPEQWKSHRSYSCQVTHEGSTVEKTVAPTECS
notes: also called anti-AVM-IgG4-CSPG5 dscFv bispecific antibody
- Kd [1]: ≤ 10 nM
- binding result [2]: binds
- binding result [3]: binds
- binding result [4]: binds

B2: CSPG5168 scFv-hG4PE(R409K) (Fc fusion)
VH: EVQLVETGGALVQPGGSLRLSCAGSGFIFSKYEMTWVRQAPGKGLEWVSTIGSLGLKTFYTDSVKGRFTTSRDNSRDTLFLQMDNLRVEDTAIYFCVKGGIRRADYWGKGTLVTVSS
VL: EIVMTQSPATLSLSPGERATLSCRASQSVSSYLAWYQQKPGQAPRLLIYDASNRATGIPARFSGSGSGTDFTLTISSLEPEDFAVYYCQQRSNWPLTFGGGTKVEIK
notes: also called anti-CSPG5 scFv-Fc antibody
- Mean fluorescence intensity ratio [5]: 5.81 ratio to parent cell line
- Mean fluorescence intensity ratio [6]: 3.36 ratio to parent cell line
- Kd [1]: ≤ 10 nM
- Mean fluorescence intensity ratio [7]: 5.46 ratio to parent cell line

Reference: patent US20210269548A1 (Kyowa Kirin, published 2021)
